Data taken from patent publication EP4606823A1 (Bristar Immunotech Limited, dated 2025).

T1: mouse LILRB4 (mouse, UniProt Q64281 24-335)
T1 construct: whole, on cells; also called 293T-mouse LILRB4
T1 sequence (looked up): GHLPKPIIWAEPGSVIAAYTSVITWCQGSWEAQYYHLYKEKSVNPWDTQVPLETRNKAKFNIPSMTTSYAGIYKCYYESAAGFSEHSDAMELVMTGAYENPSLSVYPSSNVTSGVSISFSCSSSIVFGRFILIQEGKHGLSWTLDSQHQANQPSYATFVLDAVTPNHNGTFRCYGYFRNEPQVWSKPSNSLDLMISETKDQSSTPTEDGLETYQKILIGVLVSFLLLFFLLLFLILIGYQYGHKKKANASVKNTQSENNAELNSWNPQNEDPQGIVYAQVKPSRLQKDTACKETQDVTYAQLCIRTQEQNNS


What was measured:
LILRB4 protein = target: T2, LILRB4 protein (UniProt Q8NHJ6 22-259); assay: SPR (Biacore 8K); VHH-Fc captured by anti-human IgG(Fc) on CM5 chip, LILRB4 protein as analyte 0.977-62.5 nM; 1:1 binding fit
T2 construct: also called Pro-LB

stock region of LILRB4 = target: T3, stock region of LILRB4 (UniProt Q8NHJ6 219-259, limits assumed); assay: flow cytometry
T3 construct: domain: stock region

mouse LILRB4 = target: T1, mouse LILRB4; assay: flow cytometry on 293T-mouse LILRB4
LILRA3 = target: T4, LILRA3 (UniProt Q8N6C8 24-439, limits assumed); assay: flow cytometry on 293T cells expressing the protein
T4 construct: whole, on cells

LILRB3 = target: T5, LILRB3 (UniProt O75022 24-631, limits assumed); assay: as above
T5 construct: whole, on cells

LILRA1 = target: T6, LILRA1 (UniProt O75019 17-489, limits assumed); assay: as above
T6 construct: whole, on cells

LILRB1 = target: T7, LILRB1 (UniProt Q8NHL6 24-650, limits assumed); assay: as above
T7 construct: whole, on cells

LILRA5 = target: T8, LILRA5 (UniProt A6NI73 42-299, limits assumed); assay: as above
T8 construct: whole, on cells

LILRA6 = target: T9, LILRA6 (UniProt Q6PI73 24-481, limits assumed); assay: as above
T9 construct: whole, on cells

LILRB5 = target: T10, LILRB5 (UniProt O75023 24-590, limits assumed); assay: as above
T10 construct: whole, on cells

LILRA4 = target: T11, LILRA4 (UniProt P59901 24-499, limits assumed); assay: as above
T11 construct: whole, on cells

LILRA2 = target: T12, LILRA2 (UniProt Q8N149 24-483, limits assumed); assay: as above
T12 construct: whole, on cells

LILRB2 = target: T13, LILRB2 (UniProt Q8N423 22-597, limits assumed); assay: as above
T13 construct: whole, on cells
T13 sequence (Q8N423 22-597 limits assumed): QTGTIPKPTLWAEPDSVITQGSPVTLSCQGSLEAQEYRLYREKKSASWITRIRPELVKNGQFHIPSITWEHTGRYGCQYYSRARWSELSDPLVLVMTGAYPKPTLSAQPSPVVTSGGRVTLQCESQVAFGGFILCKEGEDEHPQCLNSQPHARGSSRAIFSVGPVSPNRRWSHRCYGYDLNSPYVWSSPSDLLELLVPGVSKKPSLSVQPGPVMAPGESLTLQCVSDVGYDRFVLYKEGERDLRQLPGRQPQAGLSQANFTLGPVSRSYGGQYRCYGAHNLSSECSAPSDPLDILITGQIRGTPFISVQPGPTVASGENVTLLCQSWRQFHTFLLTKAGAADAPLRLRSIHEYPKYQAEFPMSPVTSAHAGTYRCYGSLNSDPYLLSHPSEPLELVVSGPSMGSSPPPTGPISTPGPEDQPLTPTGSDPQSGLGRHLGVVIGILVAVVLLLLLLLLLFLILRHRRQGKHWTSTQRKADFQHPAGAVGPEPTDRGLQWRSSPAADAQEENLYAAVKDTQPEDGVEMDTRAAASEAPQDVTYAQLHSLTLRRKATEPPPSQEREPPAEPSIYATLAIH

T8 sequence (A6NI73 42-299 limits assumed): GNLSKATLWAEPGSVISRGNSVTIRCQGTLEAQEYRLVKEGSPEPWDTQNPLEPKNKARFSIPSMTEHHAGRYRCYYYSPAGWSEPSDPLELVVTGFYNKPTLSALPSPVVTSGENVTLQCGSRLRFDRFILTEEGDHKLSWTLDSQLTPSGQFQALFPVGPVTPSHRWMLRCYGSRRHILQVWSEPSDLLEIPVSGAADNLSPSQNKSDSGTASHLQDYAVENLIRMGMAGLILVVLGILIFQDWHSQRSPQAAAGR
T11 sequence (P59901 24-499 limits assumed): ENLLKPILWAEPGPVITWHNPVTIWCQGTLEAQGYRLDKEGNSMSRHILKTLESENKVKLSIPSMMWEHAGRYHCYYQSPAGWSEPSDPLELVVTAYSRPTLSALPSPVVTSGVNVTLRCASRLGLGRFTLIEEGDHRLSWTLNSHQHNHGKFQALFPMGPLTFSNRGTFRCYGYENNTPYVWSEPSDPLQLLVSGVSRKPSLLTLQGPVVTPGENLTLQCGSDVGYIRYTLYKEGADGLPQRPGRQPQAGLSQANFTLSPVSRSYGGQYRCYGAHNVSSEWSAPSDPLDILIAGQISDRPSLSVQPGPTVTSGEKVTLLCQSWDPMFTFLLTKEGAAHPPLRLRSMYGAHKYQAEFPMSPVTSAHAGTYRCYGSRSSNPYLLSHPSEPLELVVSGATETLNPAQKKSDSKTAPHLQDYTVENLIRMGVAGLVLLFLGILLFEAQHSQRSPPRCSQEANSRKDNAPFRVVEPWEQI
T4 sequence (Q8N6C8 24-439 limits assumed): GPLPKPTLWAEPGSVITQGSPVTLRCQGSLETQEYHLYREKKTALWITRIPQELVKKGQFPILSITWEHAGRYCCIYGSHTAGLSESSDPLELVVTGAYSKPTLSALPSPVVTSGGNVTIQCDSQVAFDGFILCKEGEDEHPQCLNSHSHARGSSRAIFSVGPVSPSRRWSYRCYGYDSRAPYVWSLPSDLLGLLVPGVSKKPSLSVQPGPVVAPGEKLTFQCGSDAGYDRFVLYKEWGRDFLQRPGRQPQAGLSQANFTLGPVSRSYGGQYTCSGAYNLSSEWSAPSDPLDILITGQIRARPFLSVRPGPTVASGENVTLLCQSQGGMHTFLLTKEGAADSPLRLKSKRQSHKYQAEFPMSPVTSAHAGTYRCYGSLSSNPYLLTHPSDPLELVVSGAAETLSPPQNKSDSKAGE
T6 sequence (O75019 17-489 limits assumed): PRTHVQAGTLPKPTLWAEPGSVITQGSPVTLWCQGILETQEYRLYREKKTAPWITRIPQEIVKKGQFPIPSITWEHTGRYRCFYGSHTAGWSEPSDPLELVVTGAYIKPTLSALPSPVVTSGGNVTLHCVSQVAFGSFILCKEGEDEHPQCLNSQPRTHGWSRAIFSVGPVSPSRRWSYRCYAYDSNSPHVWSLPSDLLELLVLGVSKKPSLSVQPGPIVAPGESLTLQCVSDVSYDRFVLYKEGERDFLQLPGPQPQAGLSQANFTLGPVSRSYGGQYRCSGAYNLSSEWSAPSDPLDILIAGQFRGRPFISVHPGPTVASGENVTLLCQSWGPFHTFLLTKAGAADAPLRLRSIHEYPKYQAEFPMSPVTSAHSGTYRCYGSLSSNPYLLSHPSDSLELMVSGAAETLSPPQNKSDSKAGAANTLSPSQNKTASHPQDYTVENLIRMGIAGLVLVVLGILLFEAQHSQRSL
T3 sequence (Q8NHJ6 219-259 limits assumed): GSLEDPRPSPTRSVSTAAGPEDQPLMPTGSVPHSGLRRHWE
T12 sequence (Q8N149 24-483 limits assumed): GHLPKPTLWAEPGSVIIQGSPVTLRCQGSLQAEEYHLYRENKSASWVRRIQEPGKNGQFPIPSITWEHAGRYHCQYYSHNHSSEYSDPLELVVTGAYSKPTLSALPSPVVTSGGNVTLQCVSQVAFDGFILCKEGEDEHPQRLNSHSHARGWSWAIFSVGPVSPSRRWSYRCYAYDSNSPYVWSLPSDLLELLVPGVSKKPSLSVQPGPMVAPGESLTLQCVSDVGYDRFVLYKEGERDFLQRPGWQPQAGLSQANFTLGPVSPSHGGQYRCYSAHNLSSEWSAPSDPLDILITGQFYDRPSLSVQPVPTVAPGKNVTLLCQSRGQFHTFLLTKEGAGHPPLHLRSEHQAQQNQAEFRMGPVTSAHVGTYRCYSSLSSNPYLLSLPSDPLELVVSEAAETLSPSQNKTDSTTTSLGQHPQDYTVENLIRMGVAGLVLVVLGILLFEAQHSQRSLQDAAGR
T5 sequence (O75022 24-631 limits assumed): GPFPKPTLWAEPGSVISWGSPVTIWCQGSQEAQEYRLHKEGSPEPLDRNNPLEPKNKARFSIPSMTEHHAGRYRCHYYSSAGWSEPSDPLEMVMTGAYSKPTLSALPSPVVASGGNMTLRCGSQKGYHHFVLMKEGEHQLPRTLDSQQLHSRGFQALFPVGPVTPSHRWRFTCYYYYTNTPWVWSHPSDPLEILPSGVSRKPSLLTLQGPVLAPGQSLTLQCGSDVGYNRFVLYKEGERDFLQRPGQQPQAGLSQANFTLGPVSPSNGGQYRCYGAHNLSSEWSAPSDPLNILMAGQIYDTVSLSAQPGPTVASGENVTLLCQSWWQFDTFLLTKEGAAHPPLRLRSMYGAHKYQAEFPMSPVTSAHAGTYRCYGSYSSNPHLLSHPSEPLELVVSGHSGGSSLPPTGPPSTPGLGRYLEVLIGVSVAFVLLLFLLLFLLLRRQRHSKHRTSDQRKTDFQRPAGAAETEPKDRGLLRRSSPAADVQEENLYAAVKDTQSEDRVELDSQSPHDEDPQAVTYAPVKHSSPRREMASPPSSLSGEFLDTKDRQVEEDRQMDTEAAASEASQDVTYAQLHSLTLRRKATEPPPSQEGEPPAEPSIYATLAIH
T10 sequence (O75023 24-590 limits assumed): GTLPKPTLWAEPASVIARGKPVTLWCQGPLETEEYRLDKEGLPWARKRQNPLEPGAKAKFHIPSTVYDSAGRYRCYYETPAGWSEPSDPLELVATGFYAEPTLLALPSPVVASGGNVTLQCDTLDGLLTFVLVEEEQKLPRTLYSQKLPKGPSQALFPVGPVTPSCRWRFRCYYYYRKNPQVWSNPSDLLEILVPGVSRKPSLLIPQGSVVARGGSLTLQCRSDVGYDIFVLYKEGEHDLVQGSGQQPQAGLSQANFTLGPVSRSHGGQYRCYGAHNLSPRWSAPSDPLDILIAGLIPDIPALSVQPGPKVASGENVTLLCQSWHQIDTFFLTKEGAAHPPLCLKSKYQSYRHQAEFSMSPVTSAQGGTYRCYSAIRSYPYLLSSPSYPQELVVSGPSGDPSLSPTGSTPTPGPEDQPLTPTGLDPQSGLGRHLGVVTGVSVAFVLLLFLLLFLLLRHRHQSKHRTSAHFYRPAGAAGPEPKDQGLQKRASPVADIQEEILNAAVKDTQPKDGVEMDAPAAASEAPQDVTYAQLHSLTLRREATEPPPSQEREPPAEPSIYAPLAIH
T9 sequence (Q6PI73 24-481 limits assumed): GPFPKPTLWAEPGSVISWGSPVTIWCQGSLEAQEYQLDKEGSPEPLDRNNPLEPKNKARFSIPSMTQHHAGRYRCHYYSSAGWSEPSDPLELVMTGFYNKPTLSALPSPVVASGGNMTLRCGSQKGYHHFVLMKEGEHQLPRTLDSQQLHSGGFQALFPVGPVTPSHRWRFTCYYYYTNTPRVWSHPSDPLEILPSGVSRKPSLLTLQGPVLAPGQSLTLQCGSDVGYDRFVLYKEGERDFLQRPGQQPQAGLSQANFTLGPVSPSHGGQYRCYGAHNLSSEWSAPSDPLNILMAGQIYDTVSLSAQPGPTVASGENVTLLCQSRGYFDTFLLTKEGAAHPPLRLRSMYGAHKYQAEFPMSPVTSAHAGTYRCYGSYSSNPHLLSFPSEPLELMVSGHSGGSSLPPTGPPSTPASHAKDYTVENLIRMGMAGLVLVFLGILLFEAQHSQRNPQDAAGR
T7 sequence (Q8NHL6 24-650 limits assumed): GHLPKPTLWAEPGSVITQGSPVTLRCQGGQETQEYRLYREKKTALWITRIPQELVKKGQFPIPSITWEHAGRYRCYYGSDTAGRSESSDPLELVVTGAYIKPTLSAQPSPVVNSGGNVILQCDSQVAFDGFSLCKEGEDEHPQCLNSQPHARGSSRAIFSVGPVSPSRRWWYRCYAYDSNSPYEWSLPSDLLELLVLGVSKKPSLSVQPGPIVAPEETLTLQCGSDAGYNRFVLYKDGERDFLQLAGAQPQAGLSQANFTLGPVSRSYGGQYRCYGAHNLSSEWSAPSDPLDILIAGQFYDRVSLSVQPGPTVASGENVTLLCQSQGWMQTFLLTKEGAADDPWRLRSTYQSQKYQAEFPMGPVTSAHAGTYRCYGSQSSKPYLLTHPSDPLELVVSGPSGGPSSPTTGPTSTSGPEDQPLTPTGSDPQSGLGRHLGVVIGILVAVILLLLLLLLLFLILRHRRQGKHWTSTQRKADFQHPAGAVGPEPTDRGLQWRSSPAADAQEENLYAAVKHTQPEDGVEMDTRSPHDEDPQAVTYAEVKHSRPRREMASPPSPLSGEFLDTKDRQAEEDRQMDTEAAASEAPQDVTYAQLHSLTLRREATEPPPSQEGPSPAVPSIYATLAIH

Row | Kd (LILRB4 protein) [nM] | koff (LILRB4 protein) [s⁻¹] | kon (LILRB4 protein) [M⁻¹ s⁻¹] | binding result (stock region of LILRB4) | binding result (mouse LILRB4) | binding result (LILRA3) | binding result (LILRB3) | binding result (LILRA1) | binding result (LILRB1) | binding result (LILRA5) | binding result (LILRA6) | binding result (LILRB5) | binding result (LILRA4) | binding result (LILRA2) | binding result (LILRB2) | Binder
1 | 1.32 | 0.000551 | 418000 | no binding | no binding | no binding | no binding | no binding | no binding | no binding | no binding | no binding | no binding | no binding | no binding | NLB4 VHH antibody fused with human IgG1 (Fc) (Fc fusion, also called NLB(G4S)IGG1FC; NLB4 nanobody; not shown: human IgG1 Fc) DVQLQESGGGLVQSGGSLRLSCLASGTSGNVKAVGWYGWYRQAPGKQREVVATITRGGIPNYADSVQGRFTISRDNAQDTVFLQMNSLKPADTAVYYCYARILTDDWHDLWGQGTQVTVSSGGGGS
2 | 0.493 | 0.000301 | 612000 | no binding | no binding | no binding | no binding | no binding | no binding | no binding | no binding | no binding | no binding | no binding | no binding | NLB14 VHH antibody fused with human IgG1 (Fc) (Fc fusion, also called NLB(G4S)IGG1FC; NLB14 nanobody; not shown: human IgG1 Fc) DVQLQESGGGLVQPGGSLRLSCAASGFTLDYYAIGWFRQAPGKEREGVSCVSSSDGSTYYADSVKGRFTISRDNAKNTVYLQMNSLKPEDTAVYYCAADQYSSTWTIRLTRCHFGSWGQGTQVTVSSGGGGS
